# Results taken from US20100159560.
# Assays:
# [1] = biological target: T1, Streptomyces subtilisin inhibitor (SSI) derived from actinomycetes, P01006
# T1 chain: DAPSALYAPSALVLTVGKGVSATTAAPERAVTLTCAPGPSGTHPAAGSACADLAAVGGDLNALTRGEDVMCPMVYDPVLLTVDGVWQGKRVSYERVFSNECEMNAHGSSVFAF
# [2] = biological target: insulin B
# [3] = biological target: T2, protransglutaminase of Streptoverticillium mobaraense IFO13819 (pro-MTG), P81453
# T2 chain: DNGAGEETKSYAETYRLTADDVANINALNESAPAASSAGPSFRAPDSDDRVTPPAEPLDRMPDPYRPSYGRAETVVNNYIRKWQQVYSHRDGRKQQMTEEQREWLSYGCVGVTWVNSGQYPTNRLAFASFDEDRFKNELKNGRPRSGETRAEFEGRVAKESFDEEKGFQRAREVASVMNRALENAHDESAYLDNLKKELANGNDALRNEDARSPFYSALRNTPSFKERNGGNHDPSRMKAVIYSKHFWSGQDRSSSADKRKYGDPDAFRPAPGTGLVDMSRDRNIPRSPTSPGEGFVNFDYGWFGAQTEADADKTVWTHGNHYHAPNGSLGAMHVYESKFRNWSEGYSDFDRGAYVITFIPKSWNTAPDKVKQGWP
# [4] = biological target: T3, synthetic peptide Gly-Pro-Ser-Phe-Arg-Ala-Pro-Asp-Ser
# T3 chain: GPSFRAPDS
protein,measurement,setting,value
neutral metalloprotease SVP35 from Streptoverticillium mobaraense IFO13819 (protein) GTGTSTYSGTVPLTTTKSGSQYQLNDGARGGHKTYDLNQGTSGTGSLFTNSTDTWGGGRQTAGVDAHYGAAVTWDFYKNVFGRNGIRNDGKAAYSRVHYGNSYVNAFWSDSCFCMTYGDGQNNKNPLTALDVAAHEMSHGVTAATAKLVYSGESGGLNEATSDIFGTAVEFYANNKTDVGDYLIGEKINIYGDGKPLRYMDKPSKDGKSKDSWYSGIGGVDVHYSSGPANHFFYLLSEGSGKKTINGVDYDSPTADGSKVTGIGRDKAQKIWYKALTTQFTSNTNYAKARTGTLNAAASLYGNNSAEYKAVAAAWSAINVK,"relative activity (Gly-Pro-Ser-Phe-Arg-Ala-Pro-Asp-Ser cleavage activity, absence of compounds = 100%)",[1],strongly inhibited
same,cleavage points (HPLC separation and sequencing of peptide fragments),[2],"cleaved before (at the N-terminal of) especially Phe, often Leu, sometimes Tyr, Trp, Ile, Val"
same,cleavage points (HPLC separation and sequencing of peptide fragments),[3],"cleaved before (at the N-terminal of) especially Phe, often Leu, sometimes Tyr, Trp, Ile, Val"
same,"conversion of pro-MTG to mature MTG (SDS-PAGE time course; TG activity by the hydroxamate method), substrate:enzyme = 200:1",[3],"pro-MTGs were converted to the mature forms, and the produced MTGs were not reduced even after a long-term reaction"
same,"cleavage activity on the peptide substrate (HPLC, decrease of substrate)",[4],SVP35 was allowed to act on Gly-Pro-Ser-Phe-Arg-Ala-Pro-Asp-Ser (SEQ ID NO: 11) as a substrate
